From patent publication US10160812B2, “Bispecific HER2 antibodies” (MedImmune, LLC, priority 2014, dated 2018)
Values joined by “and” are separate entries in the source; they are usually repeats but may differ in a detail not shown here. Equal entries are not always repeated.

Legend:
Assay in all cases: ProteOn SPR binding of 39S to captured chimeric Her2 variants
[1] = target: T1, chimeric human/mouse Her2 variants (Homo sapiens, UniProt P04626, A221T/A298T/D307E/F173L/G201D/G222S/H174R/H193P/H318N/I172V/I184M/L181P/L183D/L317P/M198T/P230R/P283L/R203H/R217G/S196A/S202N/S209P/S214I/T182V/V219I/V272I); conditions: variant KO_II, swapped amino acids 146-310
T1 construct: His tag; made in house; host or cells: HEK293F (transient, pEBNA vector; captured from culture supernatant)
From the text: (§1) The domain II of human HER2 was identified as the epitope of 39S by swapping domains between human and mouse Her2 molecules. Mouse Her2 was chosen as the chimeric partner because it is not recognized by 39S, but shares 85% sequence identity with human HER2. Chimeric variants targeting each domain of HER2 were constructed (see method below) as listed in Table 4, including four knock-out (KO, loss-of-function) variants replacing domain I, II, III, or IV of human HER2 with the mouse counterpart, and one knock-in (KI, gain-of-function) variant grafting the domain II of human HER2 into mouse Her2 molecule. The chimeric variant nomenclature denotes types of variants (KO/KI) and the number of domains swapped. The binding profiles of 39S to these variants were characterized using a SPR based instrument ProteOn™ by capturing variants on sensor surfaces using anti-human and mouse Her2 polyclonal antibodies (see method below). The expression of the variants was monitored by anti-His polyclonal antibody using ProteOn™. […] Therefore, the domain II (amino acid 146-310) of human HER2 was identified as the epitope-containing domain of 39S by both loss-of-function and gain-of-function variants.
(§2) We further refined the epitope of 39S and identified the region of amino acid 192-208 in domain II as the critical epitope region. […] Seven knock-out variants were generated by replacing each of the following human HER2 regions with the mouse counterparts, including amino acids 146-208, 159-162, 171-187, 192-208, 250-261, 276-285, and 295-296. In addition, one knock-in variant was constructed by grafting the region of amino acid 192-208 of human HER2 to the mouse molecule. The variant nomenclature denotes types of variants (KO/KI) and the swapped regions with amino acid numbering. All variants had detectable expression levels by anti-His polyclonal antibody (Table 4). […] The binding of 39S was not impacted when substituting any other regions of human HER2 with mouse amino acids (KO_159-162, KO_171-187, KO_250-261, KO_276-285, and KO_295-296). […] Taken together, the region of amino acid 192-208 in domain II of human HER2 was identified as the functional epitope of 39S.
(§3) The variant nomenclature denotes types of variants (KO/KI) and the swapped regions with amino acid numbering. Amino acid positions were denoted basing on the numbering scheme of mature human HER2 sequences without its signal peptide. The expression levels of all variants were monitored by an anti-His polyclonal antibody. The binding profiles of 39S to these variants were characterized using a SPR based instrument ProteOn™ by capturing variants on sensor surfaces using anti-human and mouse Her2 polyclonal antibodies.
(§4) Construction and expression of chimeric human/mouse Her2 variants were constructed as follows. Briefly, DNAs encoding chimeric human/mouse Her2 variants with a His tag were assembled and amplified by overlapping PCR using human and mouse Her2 plasmids as templates (MedImmune). The assembled DNAs were cloned into the mammalian expression vector pEBNA (MedImmune). HEK293F cells were then transiently transfected with the various constructs using 293fectin and standard protocols according to the manufacturer's instructions (Invitrogen).
(§5) The binding characteristics of 39S to chimeric human/mouse variants were studied using a ProteOn™ XPR36 instrument (BioRad). Standard amine coupling was used to immobilize an anti-human or mouse Her2 polyclonal antibody (R&D System) in 10 mM sodium acetate (pH 5.0) to the surface of a GLC biosensor chip at ˜5000 resonance units (RU) for each channel. The chimeric proteins in cell culture supernatant were injected and captured by anti-human or mouse polyclonal antibodies onto the GLC surface with a ˜200RU response. Anti-HER2 mAb 39S was diluted in phosphate-buffered saline (PBS) (pH 7.4) with 0.005% Tween-20 from 10 nM to 0.625 nM (1:2 dilution), and injected at 100 μL/min for 180 sec with a 600-second dissociation time. […]

[2] = target: T2, chimeric human/mouse Her2 variants (Homo sapiens, UniProt P04626, G201D/H193P/M198T/R203H/S196A/S202N/S209P); conditions: variant KO_171-187
T2 construct: His tag; made in house; host or cells: HEK293F (transient, pEBNA vector; captured from culture supernatant)
From the text: as §1, §2, §3, §4, §5

[3] = target: T3, chimeric human/mouse Her2 variants (Homo sapiens, UniProt P04626, I184M/L181P/L183D/T182V); conditions: variant KO_159-162
T3 construct: His tag; made in house; host or cells: HEK293F (transient, pEBNA vector; captured from culture supernatant)
From the text: as §1, §2, §3, §4, §5

[4] = target: T4, chimeric human/mouse Her2 variants (Homo sapiens, UniProt P04626, P283L/V272I); conditions: variant KO_250-261
T4 construct: His tag; made in house; host or cells: HEK293F (transient, pEBNA vector; captured from culture supernatant)
From the text: as §1, §2, §3, §4, §5

[5] = target: T5, chimeric human/mouse Her2 variants (Mus musculus, UniProt P70424, A197S/D184L/D202G/E308D/G218R/H204R/I215S/I220V/I273V/L174F/L284P/M185I/N203S/N319H/P182L/P194H/P210S/P318L/R175H/R231P/S223G/T199M/T222A/T299A/V173I/V183T); conditions: variant KI_II, human amino acids 146-310 grafted into mouse Her2; read-out: The binding affinity of 39S (KD)
T5 construct: His tag; made in house; host or cells: HEK293F (transient, pEBNA vector; captured from culture supernatant)
From the text: as §1, §2, §3, §4, §5

[6] = target: T6, chimeric human/mouse Her2 variants (Mus musculus, UniProt P70424, G218R/I215S/I220V/R231P/S223G/T222A); conditions: variant KI_192-208, human amino acids 192-208 grafted into mouse Her2; read-out: The binding affinity of 39S (KD)
T6 construct: His tag; made in house; host or cells: HEK293F (transient, pEBNA vector; captured from culture supernatant)
From the text: as §1, §2, §3, §4, §5

- The binding affinity of 39S (KD) [1]: did not bind and No
- The binding affinity of 39S (KD) [2]: not impacted
- The binding affinity of 39S (KD) [3]: not impacted
- The binding affinity of 39S (KD) [4]: not impacted
- Kd [5]: 0.168 nM and 0.163 nM
- Kd [6]: 0.072 nM
B1: 39S: lead optimized monoclonal antibody derived from the 1.39.1 antibody; VH SEQ ID NO:15, VL SEQ ID NO:16 (antibody, V domains shown)
VH: EVQLVESGGGLVKPGGSLRLSCAASGFTFSSYSMSWVRQAPGKGLEWVSSISSSSSYIYYADSVKGRFTISRDNAKNSLYLQMNSLRAEDTAVYYCARGGDAYNYYYFDYWGQGTLVTVSS
VL: DIVMTQTPLSLSVTPGQPASISCKSSQSVFFRSNNKNILAWYLQKPGQPPQLLIYWASSRESGVPDRFSGSGSGTDFTLKISRVEAEDVGVYYCQQYFGSPFTFGPGTKVDIK
